The text below walks through data of PMC10138680, “Identification and Functional Analysis of Tartrate-Resistant Acid Phosphatase Type 5b (TRAP5b) in Oreochromis niloticus” (International Journal of Molecular Sciences, 2023).

In the data set the test system is T1, O=[N+]([O-])c1ccc(OP(=O)(O)O)cc1.
T1 construct: mature peptide of 302 residues (22-residue signal peptide removed; precursor 324 aa), N-terminal MBP tag (pMAL-c5X) kept, E. coli K12 TB1, amylose resin; forward primer F2 encodes MVEQGA
As to the kind of experiment: purified protein. It is filed as biochemical, Oreochromis niloticus. To be noted: substrate 5-25 mM, pH and temperature of the kinetic runs not stated (50 mM acetate; optimum pH 5.0, 50 °C; standard assay 37 °C).

Chain of (r)OnTRAP5b (Oreochromis niloticus) (chain, as listed by the source): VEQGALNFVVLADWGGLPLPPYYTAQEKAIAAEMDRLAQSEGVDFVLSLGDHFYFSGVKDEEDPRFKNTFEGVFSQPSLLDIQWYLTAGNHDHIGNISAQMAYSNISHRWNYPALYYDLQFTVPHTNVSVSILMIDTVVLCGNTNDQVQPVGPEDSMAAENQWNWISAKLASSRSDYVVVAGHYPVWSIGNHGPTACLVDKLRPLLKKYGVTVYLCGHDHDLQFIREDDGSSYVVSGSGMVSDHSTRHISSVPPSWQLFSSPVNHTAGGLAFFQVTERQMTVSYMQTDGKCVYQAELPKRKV

As to (r)OnTRAP5b (Oreochromis niloticus), the Km was determined as 2112 µM and the turnover number (kcat) worked out at 0.27 s⁻¹.
